In patent US5945329A, “Customized proteases” (Carlsberg A/S, priority 1997, dated 1999):
Positions count from the first letter of the chain named. Names may count otherwise.

Experiments:
[1] = molecular target: T1, yeast carboxypeptidase Y (CPD-Y), wild type (SEQ ID NO:32) (Saccharomyces cerevisiae, UniProt P00729); experiment: Aminolysis of ester/peptide substrates; KN(app) of nucleophile; type: biochemical; conditions: Table VI; substance of the line is the substrate (leaving group varied), pH 7.5
T1 construct: purchased Carlbiotech, Copenhagen, Denmark
T1 sequence (P00729 112-532): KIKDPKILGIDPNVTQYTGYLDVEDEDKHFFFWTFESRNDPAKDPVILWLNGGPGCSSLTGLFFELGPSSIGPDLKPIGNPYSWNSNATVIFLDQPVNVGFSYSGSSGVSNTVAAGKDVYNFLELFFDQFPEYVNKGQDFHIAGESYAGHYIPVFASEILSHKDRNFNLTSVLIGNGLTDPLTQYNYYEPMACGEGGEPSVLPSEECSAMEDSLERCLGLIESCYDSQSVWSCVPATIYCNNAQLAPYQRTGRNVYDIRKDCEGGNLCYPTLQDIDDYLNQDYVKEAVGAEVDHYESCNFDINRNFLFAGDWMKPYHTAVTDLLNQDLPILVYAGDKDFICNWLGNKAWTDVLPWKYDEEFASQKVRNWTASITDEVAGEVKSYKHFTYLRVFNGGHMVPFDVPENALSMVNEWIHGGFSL
Procedure: (§1) Aminolysis reactions were carried out in the following way. The nucleophile was dissolved in 50 mM Hepes, 5 mM EDTA and pH was adjusted to 7.5. Five (5) μl of substrate (8 mM FA-Ala-OBzl in methanol) was added to 190 μl nucleophile solution followed by 5 μl enzyme, resulting in a substrate concentration of 0.2 mM. For reactions carried out at pH 9.5, Hepes was replaced with Ches. During the reaction, 20 μl aliquots were removed from the reaction mixture and added to 50 μl 1% trifluoroacetic acid to quench the reaction. The reactant composition was determined by HPLC using a Waters HPLC equipped with a C-18 Waters Novapac 4μ reverse phase column and various gradients of acetonitrile in 0.1% trifluoroacetic acid. The separation was monitored at 302 nm allowing the direct quantification of the products from the integrated peak areas. The composition of the reaction mixture was determined at least twice during the reaction, the first time when 20-50% (preferably 35%) of the ester substrate had been consumed in the reaction and the second time when 50-90% (preferably 80%) of the substrate had been consumed. The products were collected and identified by amino acid analysis after acid hydrolysis using a Pharmacia Alpha Plus analyzer.
(§2) Further identification was obtained by co-chromatography of authentic standard compounds. The fraction of aminolysis (fa) was expressed as the ratio between the formed aminolysis product and the sum of all products being formed, i.e., unconsumed substrate was disregarded in the calculations. The KN(app), representing the nucleophile concentration at which fa is half the maximum value (a measure for the dissociation constant of the nucleophile), and famax (the highest possible fa obtained at saturation of the enzyme with nucleophile) were determined by fitting the values of fa obtained at a minimum of seven concentrations of nucleophile to a saturation. The value of fa obtained at the highest possible nucleophile concentration is designated fasat.
(§3) Aminolysis reactions were carried out in the following way. The nucleophile was dissolved in 50 mM HEPES, 5 mM EDTA and pH was adjusted to 7.5, 5 μl substrate (8 mM FA-Ala-OBzl or FA-Ala-Xaa-OH in methanol) was added to 190 μl nucleophile solution followed by 5 μl enzyme diluted in buffer to the appropriate concentration, resulting in a substrate concentration of 0.2 mM. During the reaction, 20 μl aliquots were removed from the reaction mixture and added to 50 μl 1% trifluoroacetic acid to quench the reaction. The reactant composition was determined by HPLC using a Waters HPLC equipped with a C-18 Waters Novapac 4μ reverse phase column and various gradients of acetonitrile in 0.1% trifluoroacetic acid. The separation was monitored at 302 nm allowing the direct quantification of the products from the integrated peak areas. The products were collected and identified by amino acid analysis after acid hydrolysis (Pharmacia Alpha Plus analyzer) and by co-chromatography of authentic standards. The fraction of aminolysis (fa) was expressed as the ratio between the formed aminolysis product and the sum of all products being formed, i.e. unconsumed substrate was disregarded in the calculations. The KN,app (a measure for the dissociation constant of the nucleophile) and famax (the highest possible fa obtained at saturation with nucleophile were determined by fitting the obtained fa values to the equation fa=famax /(1+KN,app /N).

[2] = molecular target: T2, carboxypeptidase Y (CPD-Y) variant E145A (Glu145 replaced by alanine) (Saccharomyces cerevisiae, UniProt P00729, E256A); experiment: Aminolysis; KN(app) of nucleophile; type: biochemical, yeast; conditions: Table VI; substance of the line is the substrate (leaving group varied), pH 7.5
T2 construct: made in house; host or cells: S. cerevisiae W2579 (secreted)
Procedure: as §1, §2, §3

[3] = molecular target: T3, carboxypeptidase Y (CPD-Y) variant E65A (Glu65 replaced by alanine) (Saccharomyces cerevisiae, UniProt P00729, E176A); experiment: Aminolysis; KN(app) of nucleophile; type: biochemical, yeast; conditions: Table VI; substance of the line is the substrate (leaving group varied), pH 7.5
T3 construct: made in house; host or cells: S. cerevisiae W2579 (secreted)
Procedure: as §1, §2, §3

[4] = molecular target: T4, carboxypeptidase Y (CPD-Y) variant N51Q (Asn51 replaced with glutamine) (Saccharomyces cerevisiae, UniProt P00729, N162Q); experiment: Aminolysis; KN(app) of nucleophile; type: biochemical, yeast; conditions: Table VI; substance of the line is the substrate (leaving group varied), pH 7.5
T4 construct: made in house; host or cells: S. cerevisiae W2579 (secreted)
T4 sequence (P00729 112-532 N162Q): T1 sequence (P00729 112-532) with N51Q
Procedure: as §1, §2, §3

[5] = molecular target: T5, carboxypeptidase Y (CPD-Y) variant N51S (Asn51 replaced with serine) (Saccharomyces cerevisiae, UniProt P00729, N162S); experiment: Aminolysis; KN(app) of nucleophile; type: biochemical, yeast; conditions: Table VI; substance of the line is the substrate (leaving group varied), pH 7.5
T5 construct: made in house; host or cells: S. cerevisiae W2579 (secreted)
T5 sequence (P00729 112-532 N162S): T1 sequence (P00729 112-532) with N51S
Procedure: as §1, §2, §3

[6] = molecular target: T1, yeast carboxypeptidase Y (CPD-Y), wild type (SEQ ID NO:32); experiment: Hydrolysis of FA-Phe-Val-OH; type: biochemical
[7] = molecular target: FA-Ala-Arg-OH
[8] = molecular target: FA-Ala-Gln-OH
[9] = molecular target: FA-Ala-Lys-OH
[10] = molecular target: FA-Ala-Ala-OH
[11] = molecular target: FA-Ala-Leu-OH
[12] = molecular target: FA-Ala-Phe-OH
[13] = molecular target: FA-Ala-Val-OH
[14] = molecular target: CBZ-Gly-Leu-OH
[15] = molecular target: CBZ-His-Leu-OH
[16] = molecular target: CBZ-Pro-Leu-OH
[17] = molecular target: CBZ-Trp-Leu-OH
[18] = molecular target: CBZ-Ala-Leu-OH
[19] = molecular target: CBZ-Glu-Leu-OH
[20] = molecular target: CBZ-Lys-Leu-OH
[21] = molecular target: CBZ-Phe-Leu-OH
[22] = molecular target: CBZ-Ser-Leu-OH
[23] = molecular target: FA-Phe-Val-OH
[24] = substrate: CC(C)[C@H](NC(=O)[C@H](Cc1ccccc1)NC(=O)C=Cc1ccco1)C(=O)O; experiment: purified protein, by the assay type; conditions: other: hydrolysis of FA-Phe-Val-OH
[25] = substrate: CC(C)C[C@H](NC(=O)[C@H](C)NC(=O)OCc1ccccc1)C(=O)O; experiment: Hydrolysis of CBZ-X-Leu-OH substrates; type: biochemical, yeast; conditions: other: Table X, hydrolysis at 25° C., 10 mM sodium phosphate pH 6.5
Procedure: (§4) Over-expression of selected mutant enzymes was performed according to Nielsen et al. (1990) cited supra. The mutant BamHI-BamHI PRC1 fragments of pYSP32 were inserted into the GAL expression vector pRA21 and introduced into yeast strain K2579LLR. The plasmid pRA21 is derived from p72UG (Nielsen et al. (1990) cited supra) by replacing the 918 bp BglII-SalI fragment with the 638 bp BglII-PvuII fragment of pWI3, thereby deleting the BamHI site downstream of the PRC1 gene. Mutant forms of CPD-Y were purified from culture supernatants by affinity chromatography as described in Example 1. Kinetic parameters were determined by measuring rates of hydrolysis at 25° C. of CBZ-X-Leu-OH substrates spectrophotometrically at 224 nm in 10 mM sodium phosphate buffer pH 6.5. The concentrations of substrates ranged from 0.01 to 0.5 mM. Accurate measurements were not possible with substrate concentrations exceeding 0.5 mM due to the high absorption of the substrate.

[26] = substrate: CC(C)C[C@H](NC(=O)[C@H](CCC(=O)O)NC(=O)OCc1ccccc1)C(=O)O; experiment: Hydrolysis of CBZ-X-Leu-OH substrates; type: biochemical, yeast; conditions: other: Table X and text, hydrolysis at 25° C., 10 mM sodium phosphate pH 6.5
Procedure: as §4

[27] = substrate: CC(C)C[C@H](NC(=O)[C@H](CCCCN)NC(=O)OCc1ccccc1)C(=O)O; experiment: Hydrolysis of CBZ-X-Leu-OH substrates; type: biochemical, yeast; conditions: other: Table X and text, hydrolysis at 25° C., 10 mM sodium phosphate pH 6.5
Procedure: as §4

[28] = substrate: CC(C)C[C@H](NC(=O)[C@H](CO)NC(=O)OCc1ccccc1)C(=O)O; experiment: Hydrolysis of CBZ-X-Leu-OH substrates; type: biochemical, yeast; conditions: other: Table X, hydrolysis at 25° C., 10 mM sodium phosphate pH 6.5
Procedure: as §4

[29] = substrate: CC(C)C[C@H](NC(=O)[C@H](Cc1ccccc1)NC(=O)OCc1ccccc1)C(=O)O; experiment: Hydrolysis of CBZ-X-Leu-OH substrates; type: biochemical, yeast; conditions: other: Table X, hydrolysis at 25° C., 10 mM sodium phosphate pH 6.5
Procedure: as §4

T3 sequence (P00729 112-532 E176A): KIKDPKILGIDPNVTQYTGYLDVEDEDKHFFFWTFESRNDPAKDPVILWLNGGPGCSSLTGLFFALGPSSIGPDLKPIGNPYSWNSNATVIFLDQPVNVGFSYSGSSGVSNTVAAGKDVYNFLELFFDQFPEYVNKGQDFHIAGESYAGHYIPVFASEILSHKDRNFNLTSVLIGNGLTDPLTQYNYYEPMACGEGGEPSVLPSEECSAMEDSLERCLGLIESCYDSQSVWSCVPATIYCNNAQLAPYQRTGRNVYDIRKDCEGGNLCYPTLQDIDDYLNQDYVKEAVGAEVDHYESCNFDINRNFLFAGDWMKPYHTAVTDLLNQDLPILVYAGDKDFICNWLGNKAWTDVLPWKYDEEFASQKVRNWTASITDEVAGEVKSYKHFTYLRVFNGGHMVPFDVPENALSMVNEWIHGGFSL
T2 sequence (P00729 112-532 E256A): as the sequence (P00729 112-532 E176A) above, with A65E, E145A counted along it

Molecule: CC(C)[C@H](NC(=O)[C@H](C)NC(=O)C=Cc1ccco1)C(=O)O [FA--Ala--Val--OH, FA-Ala-Val-OH]
- Kn,app (H-Val-NH2 as nucleophile) [1]: 1.5 ± 0.1 mM
- Kn,app (H-Val-NH2 as nucleophile) [2]: 4.2 ± 0.2 mM
- Kn,app (H-Val-NH2 as nucleophile) [3]: 5.7 ± 0.3 mM
- Kn,app (H-Val-NH2 as nucleophile) [4]: 2.4 ± 0.1 mM
- Kn,app (H-Val-NH2 as nucleophile) [5]: 1.8 ± 0.1 mM

Molecule: CC(C)[C@H](NC(=O)[C@H](Cc1ccccc1)NC(=O)C=Cc1ccco1)C(=O)O [FA-Phe-Val-OH]
- kcat [6]: 108.3 s⁻¹
- kcat /KM [6]: 2.33333e+06 M⁻¹ s⁻¹

Molecule: carboxypeptidase Y (enzyme)
- famax of transpeptidation (nucleophile H-Val-NH2) [7]: 1
- famax of transpeptidation (nucleophile H-Gly-NH2) [8]: 0.93
- famax of transpeptidation (nucleophile H-Gly-NH2) [9]: 0.99
- famax of transpeptidation (nucleophile H-Val-NH2) [10]: 0.94
- famax of transpeptidation (nucleophile H-Val-NH2) [11]: 0.16
- famax of transpeptidation (nucleophile H-Val-NH2) [12]: 0.06
- famax of transpeptidation (nucleophile H-Val-NH2) [13]: 0.22
- estimated CPD-Y activity relative to wild type transformants (fold of wild type) [14]: 1
- estimated CPD-Y activity relative to wild type transformants (fold of wild type) [15]: 1
- estimated CPD-Y activity relative to wild type transformants (fold of wild type) [16]: 1
- estimated CPD-Y activity relative to wild type transformants (fold of wild type) [17]: 1
- kcat/Km of hydrolysis [18]: 600000 M⁻¹ s⁻¹
- kcat/Km of hydrolysis [19]: 7330 M⁻¹ s⁻¹
- kcat/Km of hydrolysis [20]: 400 M⁻¹ s⁻¹
- kcat/Km of hydrolysis [21]: 6.33e+06 M⁻¹ s⁻¹
- kcat/Km of hydrolysis [22]: 200000 M⁻¹ s⁻¹
- kcat/KM of hydrolysis [23]: 2.33e+06 M⁻¹ s⁻¹

B1: yeast carboxypeptidase Y (CPD-Y), wild type (SEQ ID NO:32) (Saccharomyces cerevisiae S288C) (protein)
chain: T1 sequence (P00729 112-532)
notes: purchased Carlbiotech, Copenhagen, Denmark
- Km [24]: 47 µM
- Km [25]: 700 µM
- kcat [25]: 25000 mM/min/mM
- kcat/Km [25]: 36,000 min^-1 mM^-1
- kcat/Km [26]: 7330 M⁻¹ s⁻¹
- kcat/Km [27]: 400 M⁻¹ s⁻¹
- Km [28]: 70 µM
- kcat [28]: 800 mM/min/mM
- kcat/Km [28]: 12,000 min^-1 mM^-1
- Km [29]: 36 µM
- kcat [29]: 13600 mM/min/mM
- kcat/Km [29]: 380,000 min^-1 mM^-1
